In patent US5912224:

Molecular target: TGF-β type I receptor of Mv1Lu cells (mink)

myristylated FKBP12
TGFβ induced 3TP-Luc luciferase activity in Mv1Lu cells: 25 fold
